According to patent US20080058636A1, “METHODS OF MYOCARDIAL IMAGING” (Epix Pharmaceuticals, Inc., priority 2005, published 2008):
Bridge positions count the residues as written; N and C are the ends. GdDTPA‑thiourea = GdT is GdDTPA-thiourea (Gd-DTPA chelate attached through a thiourea)

Columns and labels:
[1] = molecular target: human collagen type I (acid soluble, extracted from placenta, Sigma C7774) (human) (UniProt P02452); experiment: dried collagen assay, 5 uM each
[2] = molecular target: rat collagen (acid soluble, type I, rat tail, Upstate 08-115) (rat) (UniProt P02454); experiment: dried collagen assay, 5 uM each
Chain of rat collagen (acid soluble, type I, rat tail, Upstate 08-115) (rat) (P02454 152-1207, chain 1 of 2): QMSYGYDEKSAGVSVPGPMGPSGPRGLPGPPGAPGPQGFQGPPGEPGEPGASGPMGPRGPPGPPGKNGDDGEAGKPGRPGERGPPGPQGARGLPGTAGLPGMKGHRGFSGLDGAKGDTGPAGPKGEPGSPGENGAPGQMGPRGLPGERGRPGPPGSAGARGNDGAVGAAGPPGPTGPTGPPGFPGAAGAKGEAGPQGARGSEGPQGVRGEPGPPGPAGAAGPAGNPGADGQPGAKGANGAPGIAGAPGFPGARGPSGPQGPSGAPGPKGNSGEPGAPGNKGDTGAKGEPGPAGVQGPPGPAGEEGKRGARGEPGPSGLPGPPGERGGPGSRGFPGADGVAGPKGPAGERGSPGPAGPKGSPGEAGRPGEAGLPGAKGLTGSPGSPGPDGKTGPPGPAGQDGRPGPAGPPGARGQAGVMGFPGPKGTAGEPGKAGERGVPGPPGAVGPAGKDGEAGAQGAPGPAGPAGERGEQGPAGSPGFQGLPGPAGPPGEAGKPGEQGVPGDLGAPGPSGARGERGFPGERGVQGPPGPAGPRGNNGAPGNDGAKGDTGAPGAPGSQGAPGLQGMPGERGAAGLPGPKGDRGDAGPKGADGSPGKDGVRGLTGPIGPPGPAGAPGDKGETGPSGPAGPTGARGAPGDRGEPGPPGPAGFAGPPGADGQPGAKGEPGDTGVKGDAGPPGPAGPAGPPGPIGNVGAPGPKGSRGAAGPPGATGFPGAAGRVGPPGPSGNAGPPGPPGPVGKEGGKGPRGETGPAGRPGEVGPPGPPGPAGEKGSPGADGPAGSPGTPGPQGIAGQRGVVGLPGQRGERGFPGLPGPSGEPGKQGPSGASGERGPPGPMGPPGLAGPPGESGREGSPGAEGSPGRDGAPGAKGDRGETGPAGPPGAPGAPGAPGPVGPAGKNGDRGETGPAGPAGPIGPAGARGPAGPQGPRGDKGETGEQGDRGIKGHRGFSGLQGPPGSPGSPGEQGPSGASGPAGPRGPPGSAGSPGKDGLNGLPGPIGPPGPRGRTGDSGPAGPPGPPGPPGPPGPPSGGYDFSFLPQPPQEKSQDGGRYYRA
Chain of rat collagen (acid soluble, type I, rat tail, Upstate 08-115) (rat) (P02466 86-1125, chain 2 of 2, further chain): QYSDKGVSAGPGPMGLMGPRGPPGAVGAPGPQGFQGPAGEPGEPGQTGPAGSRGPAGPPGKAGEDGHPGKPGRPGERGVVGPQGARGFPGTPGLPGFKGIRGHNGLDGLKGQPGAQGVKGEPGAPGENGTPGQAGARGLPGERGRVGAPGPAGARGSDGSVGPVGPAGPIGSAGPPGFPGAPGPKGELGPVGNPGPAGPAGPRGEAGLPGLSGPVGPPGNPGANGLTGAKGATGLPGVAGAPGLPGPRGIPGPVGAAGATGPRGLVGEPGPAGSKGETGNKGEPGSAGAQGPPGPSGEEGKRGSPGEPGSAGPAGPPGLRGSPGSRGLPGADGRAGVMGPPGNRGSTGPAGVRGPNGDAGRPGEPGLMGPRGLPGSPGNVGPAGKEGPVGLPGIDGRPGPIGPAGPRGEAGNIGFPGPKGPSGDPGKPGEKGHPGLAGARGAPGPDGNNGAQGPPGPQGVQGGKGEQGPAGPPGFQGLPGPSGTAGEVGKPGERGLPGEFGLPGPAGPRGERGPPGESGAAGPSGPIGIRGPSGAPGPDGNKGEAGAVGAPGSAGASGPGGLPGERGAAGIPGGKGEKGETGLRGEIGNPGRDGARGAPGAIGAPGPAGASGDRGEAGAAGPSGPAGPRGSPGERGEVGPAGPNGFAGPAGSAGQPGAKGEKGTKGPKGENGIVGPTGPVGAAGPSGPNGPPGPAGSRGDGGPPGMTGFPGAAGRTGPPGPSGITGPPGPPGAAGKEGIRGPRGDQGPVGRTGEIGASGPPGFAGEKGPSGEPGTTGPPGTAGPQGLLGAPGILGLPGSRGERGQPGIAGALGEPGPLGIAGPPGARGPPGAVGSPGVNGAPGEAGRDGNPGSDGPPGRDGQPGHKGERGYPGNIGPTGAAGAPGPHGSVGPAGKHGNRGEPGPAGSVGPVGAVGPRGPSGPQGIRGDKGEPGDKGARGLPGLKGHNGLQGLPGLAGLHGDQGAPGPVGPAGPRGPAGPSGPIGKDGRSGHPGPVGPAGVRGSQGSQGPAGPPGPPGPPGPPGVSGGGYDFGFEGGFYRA

Chain of human collagen type I (acid soluble, extracted from placenta, Sigma C7774) (human) (P02452 162-1218 limits assumed, chain 1 of 2): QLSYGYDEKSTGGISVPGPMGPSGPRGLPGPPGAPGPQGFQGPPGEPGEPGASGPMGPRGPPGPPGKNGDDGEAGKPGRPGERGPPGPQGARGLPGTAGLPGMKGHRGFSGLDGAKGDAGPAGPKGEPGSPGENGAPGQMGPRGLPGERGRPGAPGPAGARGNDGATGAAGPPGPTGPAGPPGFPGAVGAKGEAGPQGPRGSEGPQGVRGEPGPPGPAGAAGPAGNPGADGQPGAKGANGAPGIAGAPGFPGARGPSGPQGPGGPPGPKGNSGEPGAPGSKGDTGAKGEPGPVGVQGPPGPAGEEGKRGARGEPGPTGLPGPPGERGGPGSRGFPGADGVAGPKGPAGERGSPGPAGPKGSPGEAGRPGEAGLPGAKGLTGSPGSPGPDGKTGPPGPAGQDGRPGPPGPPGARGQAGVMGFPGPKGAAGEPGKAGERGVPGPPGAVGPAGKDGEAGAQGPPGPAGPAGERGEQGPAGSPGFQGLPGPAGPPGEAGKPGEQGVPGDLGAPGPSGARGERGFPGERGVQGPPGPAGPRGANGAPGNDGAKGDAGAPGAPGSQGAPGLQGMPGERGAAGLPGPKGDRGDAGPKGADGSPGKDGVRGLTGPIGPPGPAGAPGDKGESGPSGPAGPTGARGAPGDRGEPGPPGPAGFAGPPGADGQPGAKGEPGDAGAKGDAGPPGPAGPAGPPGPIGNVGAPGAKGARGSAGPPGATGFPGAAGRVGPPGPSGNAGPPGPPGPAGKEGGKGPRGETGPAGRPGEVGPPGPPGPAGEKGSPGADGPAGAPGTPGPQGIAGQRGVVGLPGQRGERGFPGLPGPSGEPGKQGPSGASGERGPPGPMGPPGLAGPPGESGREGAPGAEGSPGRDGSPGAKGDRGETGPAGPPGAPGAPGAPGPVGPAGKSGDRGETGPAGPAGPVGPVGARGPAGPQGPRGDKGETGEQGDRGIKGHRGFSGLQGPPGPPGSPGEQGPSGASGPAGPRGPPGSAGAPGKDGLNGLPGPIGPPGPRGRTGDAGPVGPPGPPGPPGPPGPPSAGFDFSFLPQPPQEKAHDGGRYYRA
Chain of human collagen type I (acid soluble, extracted from placenta, Sigma C7774) (human) (P08123 80-1119 limits assumed, chain 2 of 2, further chain): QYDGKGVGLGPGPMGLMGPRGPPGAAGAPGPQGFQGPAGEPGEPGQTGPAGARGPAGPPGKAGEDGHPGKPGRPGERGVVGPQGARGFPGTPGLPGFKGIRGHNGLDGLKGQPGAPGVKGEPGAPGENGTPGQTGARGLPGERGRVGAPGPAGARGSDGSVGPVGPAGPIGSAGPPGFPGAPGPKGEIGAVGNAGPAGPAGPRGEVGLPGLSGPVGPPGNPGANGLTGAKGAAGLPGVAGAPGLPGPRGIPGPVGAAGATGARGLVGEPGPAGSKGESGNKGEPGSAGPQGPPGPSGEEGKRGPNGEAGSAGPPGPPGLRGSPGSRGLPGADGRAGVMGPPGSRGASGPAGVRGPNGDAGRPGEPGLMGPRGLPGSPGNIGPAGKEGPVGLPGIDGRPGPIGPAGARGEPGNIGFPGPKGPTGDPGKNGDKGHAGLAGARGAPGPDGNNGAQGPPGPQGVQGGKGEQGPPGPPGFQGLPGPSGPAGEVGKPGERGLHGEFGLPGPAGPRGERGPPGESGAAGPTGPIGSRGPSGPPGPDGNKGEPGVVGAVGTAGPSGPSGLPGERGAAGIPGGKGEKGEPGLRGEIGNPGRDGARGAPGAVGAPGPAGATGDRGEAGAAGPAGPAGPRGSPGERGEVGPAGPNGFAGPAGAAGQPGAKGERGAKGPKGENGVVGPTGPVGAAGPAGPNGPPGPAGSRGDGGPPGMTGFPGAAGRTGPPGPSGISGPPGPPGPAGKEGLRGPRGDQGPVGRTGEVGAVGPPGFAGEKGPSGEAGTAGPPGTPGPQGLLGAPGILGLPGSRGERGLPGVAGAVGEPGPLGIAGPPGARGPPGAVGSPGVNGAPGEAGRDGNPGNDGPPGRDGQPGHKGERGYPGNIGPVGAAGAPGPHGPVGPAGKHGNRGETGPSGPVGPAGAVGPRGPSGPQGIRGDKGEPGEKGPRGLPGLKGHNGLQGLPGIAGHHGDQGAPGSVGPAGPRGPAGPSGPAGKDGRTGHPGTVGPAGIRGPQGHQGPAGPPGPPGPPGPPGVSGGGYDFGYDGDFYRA

| Binder | Human binding [1] [%] | Rat binding [2] [%] |
| --- | --- | --- |
| GQWTCSGDEYAWHCNYE [Compound ID 832] | 12 | 4 |
| GQWHCTTAFPHHYCLYG [Compound ID 853] | 66 | 57 |
| DWTCSGDEYYWHCNYE [Compound ID 834] | 22 | 9 |
| GAWHCTTRFPHHYCLYG [Compound ID 857] | 67 | 69 |
| GAWTCSGDEYTWHCNYE [Compound ID 830] | 26 | 11 |
| DWTCRGDEYTWHCNYE [Compound ID 822] | 47 | 20 |
| KKWHCYTYFPHHYCLYG [Compound ID 802] | 57 | 45 |
| GQWHCTTRFPHHYCAYG [Compound ID 855] | 27 | 15 |
| GQWTCYGDEYTWYCNYE [Compound ID 826] | 87 | 71 |
| {GdDTPA‑thiourea}-GQWHCTTRFPHHYCLYGK(GdDTPA‑thiourea)-NH2 (disulfide 5-14) [Compound ID 807] | 48 | 45 |
| GQWACSGDEYTWHCNYE [Compound ID 840] | 15 | 3 |
| GQWTCSGDAYTWHCAYE [Compound ID 820] | 60 | 29 |
| GQWTCSGDAYTWHCNYE [Compound ID 838] | 70 | 61 |
| DWTCSGDEYTWYCNYE [Compound ID 842] | 23 | 9 |
| DWTCSLDEYTWHCNYE [Compound ID 847] | 16 | 7 |
| DWTCSYDEYTWHCNYE [Compound ID 829] | 20 | 21 |
| DWTCSRDEYTWHCNYE [Compound ID 821] | 56 | 29 |
| GQWTCSGDEYTWHCAYE [Compound ID 839] | 30 | 11 |
| GQWTCSGDEYTWHCNY [Compound ID 823] | 53 | 28 |
| GQWTCSGDEYTWHCNYA [Compound ID 841] | 51 | 28 |
| GQWHCTTRFPHHYCKYG [Compound ID 815] | 66 | 59 |
| DWTCSSDEYTWHCNYE [Compound ID 836] | 13 | 8 |
| PPQWHCTTRFPHHYCLYG [Compound ID 854] | 64 | 56 |
| DWTCSADEYTWHCNYE [Compound ID 835] | 17 | 9 |
| DWTCSGDEYRWHCNYE [Compound ID 845] | 36 | 10 |
| GQWTCSGDEYTWACNYE [Compound ID 833] | 13 | 4 |
| PWTCSGDEYAWHCNYE [Compound ID 824] | 12 | 0 |

The next lines start with the values.

| Human binding [1] [%] | Rat binding [2] [%] | Binder |
| --- | --- | --- |
| 30 | 17 | GQWHCTTRFPAHYCLYG [Compound ID 865] |
| 4 | 1 | GQWHCTRRFPHHYCLYG [Compound ID 900] |
| 6 | 2 | GQWHCTTRFPHHTCLYG [Compound ID 905] |
| 4 | 1 | GQWHCTNRFPHHYCLYG [Compound ID 897] |
| 48 | 26 | GQWACTTRFPHHYCLYG [Compound ID 876] |
| 5 | 3 | GQWHCTSRFPHHYCLYG [Compound ID 898] |
| 47 | 38 | GQWHCTTRYPHHYCLYG [Compound ID 859] |
| 7 | 0 | GQWHCTTDYPHHYCLYG [Compound ID 895] |
| 30 | 0 | GQWHCTTRFPSHYCLYG [Compound ID 880] |
| 58 | 41 | GQWHCATRFPHHYCLYG [Compound ID 877] |
| 7 | 2 | GQWHCTTRFPHHRCLYG [Compound ID 902] |
| 20 | 14 | GQWHCTYRFPHHYCLYG [Compound ID 899] |
| 38 | 15 | GQWHCTTDFPHHYCLFG [Compound ID 890] |
| 30 | 28 | GQWSCTTRFPHHYCLYG [Compound ID 870] |
| 8 | 9 | GQWHCTTRFPHAYCLYG [Compound ID 878] |
